Results as given in patent publication US9766250B2, “Method for detecting protein-protein interaction” (MEDICAL & BIOLOGICAL LABORATORIES CO., LTD., priority 2011, dated 2017).
Numbering of substitutions follows the chain as printed.

B1: COR3.01: fluorescent protein capable of homotetramerization, SEQ ID NO: 151 (protein)
chain: MALSKHGLTKNMTTKYRMEGCVDGHKFVITGDGIGDPFEGKQTSIDLCVVEGGPLPFSEDILSTVFDYGNRVFTKYPQDLVDYFKNSCPAGYTWQRSFLFEDGAVCTASADIRVSVEENCFYHESKFHGVNFPADGPVMKKMTTNWEPSCEKITPILNEGILKGDVTMFLLLKDGGRYRCQFDTVYKAKADAKKMPEWHFIQHELTREDRSDAKHQKWRLVENAIAYRSTLP
modifications: Synthetic sequence COR3.01
B2: COR5: fluorescent protein capable of homotetramerization, SEQ ID NO: 172 (protein)
chain: B1 chain with K194D, W198M, N223S, L231P
modifications: Synthetic sequence COR5
B3: Momiji: fluorescent protein capable of homotetramerization, SEQ ID NO: 149 (protein)
chain: MVSVIKDEMKVNLRMEGSVNGHDFVIDGLGSGKPKEGTQTIELKVVKGGPLPFAYDILTTAFHYGNRVFAKYPKDIPNYFEQSFPEGYSWERSMIFEDGGICIARNDITMDGGTFYNKVRFYGVNFPPNGPVMQKKTQKWEQSTEKMYARDGVLTGDINMALLLKGGGHYRCDFRTTYKAKEKGVKLPGYHFIDHCIEILSHRNDYNNVTLFEHAVARSGLQDKEKQQQ
modifications: Synthetic sequence Momiji
B4: dimeric Azami-Green (AB) (protein)
chain: MVSVIKPEMKIKLCMRGTVNGHNFVIEGEGKGNPYEGTQILDLNVTEGAPLPFAYDILTTVFQYGNRAFTKYPADIQDYFKQTFPEGYHWERSMTYEDQGICTATSNISMRGDCFFYDIRFDGVNFPPNGPVMQKKTLKWEPSTEKMYVRDGVLKGDVNMALLLEGGGHYRCDFKTTYKAKKDVRLPDAHKVDHRIEILKHDKDYNKVKLYENAVARYSMLPSQAK
modifications: Synthetic sequence dAG(AB)
B5: dimeric Azami-Green (AC) (protein)
chain: B4 chain with V124T, A189Y, K191F
modifications: Synthetic sequence dAG(AC)
B6: monomeric Kusabira-Orange 2 (protein)
chain: MVSVIKPEMKMRYYMDGSVNGHEFTIEGEGTGRPYEGHQEMTLRVTMAEGGPMPFAFDLVSHVFCYGHRVFTKYPEEIPDYFKQAFPEGLSWERSLEFEDGGSASVSAHISLRGNTFYHKSKFTGVNFPADGPIMQNQSVDWEPSTEKITASDGVLKGDVTMYLKLEGGGNHKCQMKTTYKAAKEILEMPGDHYIGHRLVRKTEGNITEQVEDAVAHS
modifications: Synethetic sequence of monomeric version pf KO(Kusabira-Orange)
B7: TGuv: fluorescent protein capable of homotetramerization, SEQ ID NO: 147 (protein)
chain: MVSVIGKDMIMKLHVEGCVNGHSFKIEGDGKGKPYEGDQTVKLRVTEGGPLPFAFDILSASMCYGNRCFTKYPAEIPDIFKQTFPEGYSWERALTFEDGGFASSSSHISVRGNCFFYDVKYHGVNFPSNGPIMQRKTIGWQPSTEKLYIGEGTLKGDDTMFLKLEGGGTHKCHVLTTYKTKKDVQMPDSHFIDHRLLTSHLDKECNNVELREHAVARNSSLPSR
modifications: Synthetic sequence TGuv
B8: Kusabira-Cyan1 (protein)
chain: MVSVIKPEMKMRYYMDGSVNGHEFTVEGEGTGRPYEGKHKITLDVTKGGPLPFAFDLLSTVFSYGNRALTKYPDDIPDYFKQCFPGGYSWERKFEFEDGGLAIAKAEISLKGNCFEHKSTIEGTFPDSSPIMQNKTLGWEPSTEKMTVRDGSMKGDDAAYLKLVGGGNHKCYFTTTYTAKKKIPNLPGSHFIGHRISSVVEGTKIKVMEDAIAHLYPFNGS
modifications: Synthetic sequence KCy1
B9: monomericMidoriishi-Cyan1 (protein)
chain: MVSYSKQGIAQEMRTKYRMEGSVNGHEFTIEGVGTGNPYEGKQTSELVIIKPKGKPLPFSFDILSTVFQYGNRCFTKYPADMPDYFKQAFPDGMSYERSFLFEDGGVATASWSIRLEGNCFIHNSIYHGTNFPADGPVMKKQTIGWDKSSEKMSVAKEVLRGDVTQFLLLEGGGYQRCQLHSTYKTEKPVAMPPSHVVEHQIVRTDLGQTAKGFKVKLEEHAEAHVNPLKVK
modifications: Synthetic sequence mMiCy1

Target: T1, mTOR(FRB) and FKBP12 interaction (Homo sapiens, UniProt P42345+P62942)
T1 construct: region having the 2025th to 2114th amino acids of the mTOR protein; expressed in transfected cells; host or cells: HeLaS3; 293T for some combinations with FKBP12-Tankyrase(SAM)
Test: Degree of fluorescent focus (assembly) formation after rapamycin with TFG(PB1) (Example 9, Table 2)
Assay type: cell-based
Set-up: key: ++: fluorescent foci were observed in 50% or less of the HeLaS3 cells; +: fluorescent foci were observed in the 293T cells expressing a larger amount of proteins than that in the HeLaS3 cells
Conditions: fluorescent protein fused to mTOR(FRB), KO1 and dAG (AB) in 293T cells

T1 sequence (P42345 2025-2114): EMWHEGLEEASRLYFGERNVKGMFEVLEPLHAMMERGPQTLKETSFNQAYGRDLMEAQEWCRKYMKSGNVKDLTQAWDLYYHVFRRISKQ
T1 sequence (P62942 whole entry): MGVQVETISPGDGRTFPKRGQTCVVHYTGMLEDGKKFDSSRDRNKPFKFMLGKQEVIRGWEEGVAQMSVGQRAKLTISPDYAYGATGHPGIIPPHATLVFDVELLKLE

Molecule | degree of fluorescent focus formation, TFG (PB1)
B1 | ++ (fluorescent foci were observed in 50% or less of the HeLaS3 cells)
B2 | ++ (fluorescent foci were observed in 50% or less of the HeLaS3 cells)
B3 | ++ (fluorescent foci were observed in 50% or less of the HeLaS3 cells)
B4 | +
B5 | ++ (fluorescent foci were observed in 50% or less of the HeLaS3 cells)

Target: T1, mTOR(FRB) and FKBP12 interaction
Test: Degree of fluorescent focus (assembly) formation after rapamycin, fluorescent proteins fused to mTOR(FRB) (Example 8, Table 1)
Assay type: cell-based
Set-up: key to degree of fluorescent focus formation, Tankyrase (SAM): +++: fluorescent foci were observed in 50% or more of the HeLaS3 cells; ++: fluorescent foci were observed in 50% or less of the HeLaS3 cells; +: fluorescent foci were observed in 293T cells expressing a larger amount of proteins than that in the HeLaS3 cells
Conditions: fluorescent protein fused to mTOR(FRB), with FKBP12-DGKd(SAM)
Method: Note that plasmid DNAs encoding fusion proteins composed of mTOR(FRB) and the corresponding fluorescent proteins were prepared as appropriate by the same method as that described in Example 2. Moreover, regarding the combinations of FKBP12-Tankyrase(SAM) with mKO2, mKeima, mMiCy1, mKO1, MiCy1, and TGuv, the test was conducted by introducing the genes into 293T cells. Specifically, the 293T cells were cultured in DMEM High glucose (manufactured by SIGMA ALDRICH CO.) containing 10% FBS (manufactured by Equitech-Bio Inc.). Moreover, the 293T cells were seeded onto an 8-well chamber (manufactured by Nunc A/S) 6 hours before the plasmid DNAs were introduced. Further, at the time of the transfection, 200 ng of the plasmid DNA encoding FKBP12-Tankyrase(SAM) and 200 ng of one of the plasmid DNAs encoding fusion proteins composed of the fluorescent proteins and mTOR(FRB) were diluted with 30 μl of OptiMEM (manufactured by Life Technologies Corporation), and 1.2 μl of TurboFect Transfection Reagent (manufactured by Thermo Fisher Scientific Inc.) was added thereto and stirred. Then, the resultant was further mixed with 300 μl of the culture solution, subsequently added to the 293T cells, and observed 48 hours later.

Molecule | degree of fluorescent focus formation, DGKd (SAM)
B1 | +++ (fluorescent foci were observed in 50% or more of the HeLaS3 cells)
B2 | +++ (fluorescent foci were observed in 50% or more of the HeLaS3 cells)
B6 | +++ (fluorescent foci were observed in 50% or more of the HeLaS3 cells)
B3 | +++ (fluorescent foci were observed in 50% or more of the HeLaS3 cells)
B7 | +++ (fluorescent foci were observed in 50% or more of the HeLaS3 cells)
B8 | +++ (fluorescent foci were observed in 50% or more of the HeLaS3 cells)
B4 | +++ (fluorescent foci were observed in 50% or more of the HeLaS3 cells)
B5 | +++ (fluorescent foci were observed in 50% or more of the HeLaS3 cells)
B9 | +++ (fluorescent foci were observed in 50% or more of the HeLaS3 cells)

Same assay, conditions: fluorescent protein fused to mTOR(FRB), with FKBP12-TEL(SAM)

Molecule | degree of fluorescent focus formation, TEL (SAM)
B1 | +++ (fluorescent foci were observed in 50% or more of the HeLaS3 cells)
B2 | +++ (fluorescent foci were observed in 50% or more of the HeLaS3 cells)
B6 | ++ (fluorescent foci were observed in 50% or less of the HeLaS3 cells)
B3 | +++ (fluorescent foci were observed in 50% or more of the HeLaS3 cells)
B7 | +++ (fluorescent foci were observed in 50% or more of the HeLaS3 cells)
B8 | +++ (fluorescent foci were observed in 50% or more of the HeLaS3 cells)
B4 | +++ (fluorescent foci were observed in 50% or more of the HeLaS3 cells)
B5 | +++ (fluorescent foci were observed in 50% or more of the HeLaS3 cells)
B9 | +++ (fluorescent foci were observed in 50% or more of the HeLaS3 cells)

Same assay, conditions: fluorescent protein fused to mTOR(FRB), with FKBP12-Tankyrase(SAM), some combinations in 293T cells

Molecule | degree of fluorescent focus formation, Tankyrase (SAM)
B1 | +++ (fluorescent foci were observed in 50% or more of the HeLaS3 cells)
B2 | +++ (fluorescent foci were observed in 50% or more of the HeLaS3 cells)
B6 | +
B3 | +++ (fluorescent foci were observed in 50% or more of the HeLaS3 cells)
B7 | +
B8 | ++ (fluorescent foci were observed in 50% or less of the HeLaS3 cells)
B4 | ++ (fluorescent foci were observed in 50% or less of the HeLaS3 cells)
B5 | ++ (fluorescent foci were observed in 50% or less of the HeLaS3 cells)
B9 | +

Same assay, conditions: fluorescent protein fused to mTOR(FRB), with p62(PB1)-FKBP12

Molecule | degree of fluorescent focus formation, P62 (PB1)
B1 | +++ (fluorescent foci were observed in 50% or more of the HeLaS3 cells)
B2 | +++ (fluorescent foci were observed in 50% or more of the HeLaS3 cells)
B6 | +++ (fluorescent foci were observed in 50% or more of the HeLaS3 cells)
B3 | +++ (fluorescent foci were observed in 50% or more of the HeLaS3 cells)
B7 | +++ (fluorescent foci were observed in 50% or more of the HeLaS3 cells)
B8 | +++ (fluorescent foci were observed in 50% or more of the HeLaS3 cells)
B4 | +++ (fluorescent foci were observed in 50% or more of the HeLaS3 cells)
B5 | +++ (fluorescent foci were observed in 50% or more of the HeLaS3 cells)
B9 | +++ (fluorescent foci were observed in 50% or more of the HeLaS3 cells)
